# Values quoted from earlier work in PMC11507603.
# Target: Ubiquitin (UniProt P0CG48)
# Experiment: SPR
# Epsin Ent1 ENTH, sequence (Q12518 8-146): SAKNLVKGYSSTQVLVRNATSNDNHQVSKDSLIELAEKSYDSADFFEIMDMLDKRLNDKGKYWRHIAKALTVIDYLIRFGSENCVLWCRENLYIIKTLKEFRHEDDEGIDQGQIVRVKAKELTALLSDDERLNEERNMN
substance,measurement,value
Epsin Ent1 ENTH (from UniProt Q12518),Kd,2300 µM
